{
  "source": "patent US20250277018A1",
  "about": "(published 2025)",
  "binders": {"B1": {"name": "cy (other)", "chain": "DTHKSEVAHRFKDLGEEHFKGLVLVAFSQYLQQCPFEEHVKLVNEVTEFAKTCVADESAENCDKSLHTLFGDKLCTVATLRETYGEMADCCAKQEPERNECFLQHKDDNPNLPPLVRPEVDVMCTAFHDNEATFLKKYLYEVARRHPYFYAPELLFFAARYKAAFAECCQAADKAACLLPKLDELRDEGKASSAKQRLKCASLQKFGDRAFKAWAVARLSQKFPKAEFAEVSKLVTDLTKVHTECCHGDLLECADDRADLAKYMCENQDSISSKLKECCDKPLLEKSHCLAEVENDEMPADLPSLAADYVESKDVCKNYAEAKDVFLGMFLYEYARRHPDYSVMLLLRLAKAYEATLEKCCAAADPHECYAKVFDEFQPLVEEPQNLVKQNCELFEQLGEYKFQNALLVRYTKKVPQVSTPTLVEVSRNLGKVGAKCCKLPEAKRMPCAEDYLSVVLNRLCVLHEKTPVSEKVTKCCTESLVNRRPCFSALELDEAYVPKAFNAETFTFHADMCTLSEKEKQVKKQTALVELVKHKPKATKEQLKGVMDNFAAFVEKCCKADDKEACFAEEGPKFVAASQAALA"}, "B2": {"name": "cx5009, hz4A01v51 VHH-hIgG1-xELL-NNT-Fc (VHH)", "VHH": "EVQLVESGGGEVQPGGSLRLSCAASGFTFSTSGMVWVRQAPGKGLEWVSTISDDARITVYAESVKGRFTISRDNAKNTVYLQMNSLRAEDTAVYYCATYRAGSRIGSYEDYYRGQGTLVTVKP"}, "B3": {"name": "cx12584 (VHH)", "chain": "GGGGDKTHTCPPCPAPGGPSVFLFPPKPKDTLMISRTPEVTCVVVDVSHEDPEVKFNWYVDGVEVHNAKTKPREEQYNSTYRVVSVLTVLHQDWLNGKEYKCKVSNKALPAPIEKTISKAKGQPREPQVYTLPPSRDELTKNQVSLTCLVKGFYPSDIAVEWESNGQPENNYKTTPPVLDSDGSFFLYSKLTVDKSRWQQGNVFSCSVMHEALHNHYTQKSLSLSPGGGSGGGSGGGSEVQLVESGGGEVQPGGSLRLSCAASGFTFSTSGMVWVRQAPGKGLEWVSTISDDARITVYAESVKGRFTISRDNAKNTVYLQMNSLRAEDTAVYYCATYRAGSRIGSYEDYYRGQGTLVTVKP"}, "B4": {"name": "cx12596 (bispecific antibody)", "heavy": "EVQLVESGGGLEQPGGSLRLSCAGSGFTFRDYAMTWVRQAPGKGLEWVSSISGSGGNTYYADSVKGRFTISRDNSKNTLYLQMNSLRAEDTAVYYCAKDRLSITIRPRYYGLDVWGQGTTVTVSSASTKGPSVFPLAPCSRSTSESTAALGCLVKDYFPEPVTVSWNSGALTSGVHTFPAVLQSSGLYSLSSVVTVPSSSLGTKTYTCNVDHKPSNTKVDKRVGGSGGSEVQLVESGGGEVQPGGSLRLSCAASGFTFSTSGMVWVRQAPGKGLEWVSTISDDARITVYAESVKGRFTISRDNAKNTVYLQMNSLRAEDTAVYYCATYRAGSRIGSYEDYYRGQGTLVTVKPGGGGDKTHTCPPCPAPGGPSVFLFPPKPKDTLMISRTPEVTCVVVDVSHEDPEVKFNWYVDGVEVHNAKTKPREEQYNSTYRVVSVLTVLHQDWLNGKEYKCKVSNKALPAPIEKTISKAKGQPREPQVYTLPPSRDELTKNQVSLTCLVKGFYPSDIAVEWESNGQPENNYKTTPPVLDSDGSFFLYSKLTVDKSRWQQGNVFSCSVMHEALHNHYTQKSLSLSP", "light": "DIVMTQSPLSLPVTPGEPASISCRSSQSLLYSIGYNYLDWYLQKSGQSPQLLIYLGSNRASGVPDRFSGSGSGTDFTLKISRVEAEDVGFYYCMQALQTPYTFGQGTKLEIKRTVAAPSVFIFPPSDEQLKSGTASVVCLLNNFYPREAKVQWKVDNALQSGNSQESVTEQDSKDSTYSLSSTLTLSKADYEKHKVYACEVTHQGLSSPVTKSENRGEC"}, "B5": {"name": "cx12594 (bispecific antibody)", "heavy": "EVQLVESGGGLEQPGGSLRLSCAGSGFTFRDYAMTWVRQAPGKGLEWVSSISGSGGNTYYADSVKGRFTISRDNSKNTLYLQMNSLRAEDTAVYYCAKDRLSITIRPRYYGLDVWGQGTTVTVSSASTKGPSVFPLAPCSRSTSESTAALGCLVKDYFPEPVTVSWNSGALTSGVHTFPAVLQSSGLYSLSSVVTVPSSSLGTKTYTCNVDHKPSNTKVDKRVESKYGPPCPPCPAPEFLGGPSVFLFPPKPKDTLYISRTPEVTCVVVDVSQEDPEVQFNWYVDGVEVHNAKTKPREEQFNSTYRVVSVLTVLHQDWLNGKEYKCKVSNKGLPSSIEKTISKAKGQPREPQVYTLPPSQEEMTKNQVSLTCLVKGFYPSDIAVEWESNGQPENNYKTTPPVLDSDGSFFLYSRLTVDKSRWQEGNVFSCSVVHEALHNHYTQKSLSLSLGGSGGSEVQLVESGGGEVQPGGSLRLSCAASGFTFSTSGMVWVRQAPGKGLEWVSTISDDARITVYAESVKGRFTISRDNAKNTVYLQMNSLRAEDTAVYYCATYRAGSRIGSYEDYYRGQGTLVTVKP", "light": "B4 light"}, "B6": {"name": "cx12595 (bispecific antibody)", "heavy": "EVQLVESGGGLEQPGGSLRLSCAGSGFTFRDYAMTWVRQAPGKGLEWVSSISGSGGNTYYADSVKGRFTISRDNSKNTLYLQMNSLRAEDTAVYYCAKDRLSITIRPRYYGLDVWGQGTTVTVSSASTKGPSVFPLAPCSRSTSESTAALGCLVKDYFPEPVTVSWNSGALTSGVHTFPAVLQSSGLYSLSSVVTVPSSSLGTKTYTCNVDHKPSNTKVDKRVGGSGGSEVQLVESGGGEVQPGGSLRLSCAASGFTFSTSGMVWVRQAPGKGLEWVSTISDDARITVYAESVKGRFTISRDNAKNTVYLQMNSLRAEDTAVYYCATYRAGSRIGSYEDYYRGQGTLVTVKPGGGGESKYGPPCPPCPAPEFLGGPSVFLFPPKPKDTLYISRTPEVTCVVVDVSQEDPEVQFNWYVDGVEVHNAKTKPREEQFNSTYRVVSVLTVLHQDWLNGKEYKCKVSNKGLPSSIEKTISKAKGQPREPQVYTLPPSQEEMTKNQVSLTCLVKGFYPSDIAVEWESNGQPENNYKTTPPVLDSDGSFFLYSRLTVDKSRWQEGNVFSCSVVHEALHNHYTQKSLSLSLG", "light": "B4 light"}, "B7": {"name": "cx12583 (VHH)", "chain": "GGGGDKTHTCPPCPAPGGPSVFLFPPKPKDTLMISRTPEVTCVVVDVSHEDPEVKFNWYVDGVEVHNAKTKPREEQYNSTYRVVSVLTVLHQDWLNGKEYKCKVSNKALPAPIEKTISKAKGQPREPQVYTLPPSRDELTKNQVSLTCLVKGFYPSDIAVEWESNGQPENNYKTTPPVLDSDGSFFLYSKLTVDKSRWQQGNVFSCSVMHEALHNHYTQKSLSLSPGSGGGSEVQLVESGGGEVQPGGSLRLSCAASGFTFSTSGMVWVRQAPGKGLEWVSTISDDARITVYAESVKGRFTISRDNAKNTVYLQMNSLRAEDTAVYYCATYRAGSRIGSYEDYYRGQGTLVTVKP"}},
  "key": {"4A01v5": {"biological_target": "4A01v5", "test": "ELISA"}, "4A01v3": {"biological_target": "4A01v3", "test": "ELISA"}, "4A01v4": {"biological_target": "4A01v4", "test": "ELISA"}, "4A01v6": {"biological_target": "4A01v6", "test": "ELISA"}, "4A01v9": {"biological_target": "4A01v9", "test": "ELISA"}, "4A01v1": {"biological_target": "4A01v1", "test": "ELISA"}, "4A01v3-1": {"biological_target": "4A01v3-1", "test": "ELISA"}, "4A01v3-8": {"biological_target": "4A01v3-8", "test": "ELISA"}, "4A01v3-5": {"biological_target": "4A01v3-5", "test": "ELISA"}, "4A01v3-3": {"biological_target": "4A01v3-3", "test": "ELISA"}, "4A01v3-7": {"biological_target": "4A01v3-7", "test": "ELISA"}, "4A01v3-4": {"biological_target": "4A01v3-4", "test": "ELISA"}, "Rat serum albumin": {"biological_target": "T1, Rat serum albumin", "T1 chain": "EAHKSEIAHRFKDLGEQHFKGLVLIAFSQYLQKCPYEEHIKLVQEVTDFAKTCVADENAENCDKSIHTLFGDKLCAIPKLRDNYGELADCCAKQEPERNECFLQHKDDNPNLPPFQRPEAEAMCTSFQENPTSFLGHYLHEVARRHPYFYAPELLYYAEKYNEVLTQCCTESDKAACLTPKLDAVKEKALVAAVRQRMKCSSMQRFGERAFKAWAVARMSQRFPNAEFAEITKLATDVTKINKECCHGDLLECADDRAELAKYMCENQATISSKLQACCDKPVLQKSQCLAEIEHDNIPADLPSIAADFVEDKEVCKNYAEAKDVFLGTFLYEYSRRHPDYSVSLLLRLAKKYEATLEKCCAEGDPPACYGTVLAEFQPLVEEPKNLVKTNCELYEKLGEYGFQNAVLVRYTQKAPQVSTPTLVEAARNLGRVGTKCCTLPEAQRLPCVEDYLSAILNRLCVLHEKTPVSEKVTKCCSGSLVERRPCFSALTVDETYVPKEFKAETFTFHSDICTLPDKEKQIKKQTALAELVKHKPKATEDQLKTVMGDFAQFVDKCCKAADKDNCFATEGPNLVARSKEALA", "test": "ELISA"}, "Murine serum albumin": {"biological_target": "Murine serum albumin", "sequence (chain, as listed by the source)": "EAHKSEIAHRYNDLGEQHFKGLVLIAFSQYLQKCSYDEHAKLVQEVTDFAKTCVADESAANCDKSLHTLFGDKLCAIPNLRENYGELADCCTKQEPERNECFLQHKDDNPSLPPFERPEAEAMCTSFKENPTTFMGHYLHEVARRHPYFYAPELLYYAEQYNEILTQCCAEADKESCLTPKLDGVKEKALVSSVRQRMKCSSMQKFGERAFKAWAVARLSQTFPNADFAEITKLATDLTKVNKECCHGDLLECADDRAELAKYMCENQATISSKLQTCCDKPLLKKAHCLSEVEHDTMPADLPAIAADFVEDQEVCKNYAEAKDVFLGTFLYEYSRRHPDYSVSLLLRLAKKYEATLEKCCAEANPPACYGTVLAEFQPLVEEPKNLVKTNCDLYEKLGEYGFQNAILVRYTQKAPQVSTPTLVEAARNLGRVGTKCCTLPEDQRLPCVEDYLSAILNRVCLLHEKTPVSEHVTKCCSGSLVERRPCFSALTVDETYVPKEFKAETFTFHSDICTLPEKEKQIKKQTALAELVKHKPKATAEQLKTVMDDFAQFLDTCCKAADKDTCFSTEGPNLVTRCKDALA", "test": "ELISA"}, "[1]": {"biological_target": "T2, Cynomolgus monkey serum albumin", "T2 chain": "B1 chain", "test": "ELISA"}, "Human serum albumin": {"biological_target": "Human serum albumin", "test": "ELISA; pH 7.4"}},
  "data": [
    {"binder": "B1", "values": [
      {"measurement": "Kd", "setting": "4A01v5", "value": 0.203, "unit": "nM"},
      {"measurement": "Kd", "setting": "4A01v3", "value": 0.338, "unit": "nM"},
      {"measurement": "Kd", "setting": "4A01v4", "value": 0.247, "unit": "nM"},
      {"measurement": "Kd", "setting": "4A01v6", "value": 0.225, "unit": "nM"},
      {"measurement": "Kd", "setting": "4A01v9", "value": 0.117, "unit": "nM"},
      {"measurement": "Kd", "setting": "4A01v1", "value": 0.157, "unit": "nM"},
      {"measurement": "Kd", "setting": "4A01v3-1", "value": 0.127, "unit": "nM"},
      {"measurement": "Kd", "setting": "4A01v3-8", "value": 0.147, "unit": "nM"},
      {"measurement": "Kd", "setting": "4A01v3-5", "value": 0.126, "unit": "nM"},
      {"measurement": "Kd", "setting": "4A01v3-3", "value": 0.142, "unit": "nM"},
      {"measurement": "Kd", "setting": "4A01v3-7", "value": 0.118, "unit": "nM"},
      {"measurement": "Kd", "setting": "4A01v3-4", "value": 0.181, "unit": "nM"}
    ]},
    {"binder": "B2", "values": [
      {"measurement": "Kd", "setting": "Rat serum albumin", "value": 0.234, "unit": "nM"},
      {"measurement": "Kd", "setting": "Murine serum albumin", "value": 0.207, "unit": "nM"},
      {"measurement": "Kd", "setting": "[1]", "value": 0.189, "unit": "nM"}
    ]},
    {"binder": "B3", "values": [
      {"measurement": "Kd", "setting": "Human serum albumin", "value": 0.0813, "unit": "nM"}
    ]},
    {"binder": "B4", "values": [
      {"measurement": "Kd", "setting": "Human serum albumin", "value": 0.0122, "unit": "nM"}
    ]},
    {"binder": "B5", "values": [
      {"measurement": "Kd", "setting": "Human serum albumin", "value": 0.118, "unit": "nM"}
    ]},
    {"binder": "B6", "values": [
      {"measurement": "Kd", "setting": "Human serum albumin", "value": 0.0326, "unit": "nM"}
    ]},
    {"binder": "B7", "values": [
      {"measurement": "Kd", "setting": "Human serum albumin", "value": 0.126, "unit": "nM"}
    ]}
  ]
}
